Molecular target: the molecule itself
Assay: SDS-PAGE

B1: BbZIP, zinc transporter from Bordetella bronchiseptica, full-length, N-terminal His6 (natural protein, UniProt A0A0H3LM39 1-309, looked up)
chain: MNQPSSLAADLRGAWHAQAQSHPLITLGLAASAAGVVLLLVAGIVNALTGENRVHVGYAVLGGAAGFAATALGALMALGLRAISARTQDAMLGFAAGMMLAASAFSLILPGLDAAGTIVGPGPAAAAVVALGLGLGVLLMLGLDYFTPHEHERTGHQGPEAARVNRVWLFVLTIILHNLPEGMAIGVSFATGDLRIGLPLTSAIAIQDVPEGLAVALALRAVGLPIGRAVLVAVASGLMEPLGALVGVGISSGFALAYPISMGLAAGAMIFVVSHEVIPETHRNGHETTATVGLMAGFALMMFLDTALG
stoichiometry N: 2
